Measured values published in patent US20250368978A1, “SQUALENE HOPENE CYCLASE VARIANTS FOR PRODUCING SCLAREOLIDE” (INTERNATIONAL FLAVORS & FRAGRANCES INC., priority 2022, published 2025).
Residue numbers refer to the chain shown, from its start. Numbers in names are those of the source.

B1: WT: wild-type squalene hopene cyclase from Gluconobacter morbifer, SEQ ID NO: 1 / SEQ ID NO: 2 (protein)
chain: MSPADISTKSSSFQRLDNMLPEAVSSACDWLIDQQKPDGHWVGPVESNACMEAQWCLALWFLGQEDHPLRPRLAQALLEMQREDGSWGIYVGADHGDINTTVEAYAALRSMGYAADMPIMAKSAAWIQQKGGLRNVRVFTRYWLALIGEWPWDKTPNLPPEIIWLPDNFIFSIYNFAQWARATMMPLTILSARRPSRPLLPENRLDGLFPEGRENFDYELPVKGEEDLWGRFFRAADKGLHSLQSFPVRRFVPREAAIRHVIEWIIRHQDADGGWGGIQPPWIYGLMALSVEGYPLHHPVLAKAMDALNDPGWRRDKGDASWIQATNSPVWDTMLAVLALHDAGAEDRYSPQMDKAIGWLLDRQVRVKGDWSIKLPDTEPGGWAFEYANDKYPDTDDTAVALIALAGCRHRPEWRERDIEGAISRGVNWLLAMQSSSGGWGAFDKDNNRSILTKIPFCDFGEALDPPSVDVTAHVLEAFGLLGISRNHPSVQKALAYIRSEQERNGAWFGRWGVNYVYGTGAVLPALAAIGEDMTQPYIVRACDWLMSVQQENGGWGESCASYMDINAVGHGVATASQTAWALIGLLAAKRPKDREAIARGCQFLIERQEDGSWTEEEYTGTGFPGYGVGQAIKLDDPSLPDRLLQGAELSRAFMLRYDLYRQYFPVMALSRARRMMKEDASAAA
modifications: Gluconobacter morbifer
B2: V45L + Q54E + R249R + I278T + T326S: GmSHC variant with these substitutions relative to SEQ ID NO: 2; R249R is a silent mutation (protein)
chain: B1 chain with V45L, Q54E, I278T, T326S
modifications: Gluconobacter morbifer
notes: R249R is a silent mutation
B3: V45L + Q54E + V222K + I278S + T326S: GmSHC variant with these substitutions relative to SEQ ID NO: 2 (protein)
chain: B1 chain with V45L, Q54E, V222K, I278S, T326S
modifications: Gluconobacter morbifer
B4: V45L + Q54E + V222K + I278T + T326S: GmSHC variant with these substitutions relative to SEQ ID NO: 2 (protein)
chain: B1 chain with V45L, Q54E, V222K, I278T, T326S
modifications: Gluconobacter morbifer
B5: V45L + Q54E + M184T + R249R + I278T + T326S: GmSHC variant with these substitutions relative to SEQ ID NO: 2 (protein)
chain: B1 chain with V45L, Q54E, M184T, I278T, T326S
modifications: Gluconobacter morbifer
B6: V45L + Q54E + V222Q + R249R + I278T + T326S: GmSHC variant with these substitutions relative to SEQ ID NO: 2 (protein)
chain: B1 chain with V45L, Q54E, V222Q, I278T, T326S
modifications: Gluconobacter morbifer
B7: V45L + Q54E + V222R + I278T + T326S: GmSHC variant with these substitutions relative to SEQ ID NO: 2 (protein)
chain: B1 chain with V45L, Q54E, V222R, I278T, T326S
modifications: Gluconobacter morbifer
B8: V45L + Q54E + I278T + T326S: GmSHC variant, first mutant enzyme which showed formation of sclareolide (protein)
chain: B1 chain with V45L, Q54E, I278T, T326S
B9: V45L + Q54E + V222K + I278A + T326S: GmSHC variant with these substitutions relative to SEQ ID NO: 2 (protein)
chain: B1 chain with V45L, Q54E, V222K, I278A, T326S
modifications: Gluconobacter morbifer
B10: V45L + Q54E + Q178S + V222R + 1278T + T326S: GmSHC variant with these substitutions relative to SEQ ID NO: 2 (protein)
chain: B1 chain with V45L, Q54E, Q178S, V222R, I278T, T326S
modifications: Gluconobacter morbifer
B11: V45L + Q54E + V222R + I278T + T326S + R348R: GmSHC variant with these substitutions relative to SEQ ID NO: 2 (protein)
chain: B1 chain with V45L, Q54E, V222R, I278T, T326S
modifications: Gluconobacter morbifer
B12: V45L + Q54E + R249R + I278T + T326S + A574A: GmSHC variant with these substitutions relative to SEQ ID NO: 2 (protein)
chain: B1 chain with V45L, Q54E, I278T, T326S
modifications: Gluconobacter morbifer
B13: V45L + Q54E + R249R + I278A + T326S: GmSHC variant with these substitutions relative to SEQ ID NO: 2 (protein)
chain: B1 chain with V45L, Q54E, I278A, T326S
modifications: Gluconobacter morbifer
B14: V45L + Q54E + V222K + R249R + I278T + T326S: GmSHC variant with these substitutions relative to SEQ ID NO: 2 (protein)
chain: B1 chain with V45L, Q54E, V222K, I278T, T326S
modifications: Gluconobacter morbifer
B15: V45L + Q54E + V222Q + Y284W + R249R + 1278T + T326S: GmSHC variant with these substitutions relative to SEQ ID NO: 2 (protein)
chain: B1 chain with V45L, Q54E, V222Q, I278T, Y284W, T326S
modifications: Gluconobacter morbifer
B16: V45L + Q54E + Q178S + V222K + I278S + T326S: GmSHC variant with these substitutions relative to SEQ ID NO: 2 (protein)
chain: B1 chain with V45L, Q54E, Q178S, V222K, I278S, T326S
modifications: Gluconobacter morbifer
B17: V45L + Q54E + V222Q + R249R + I278T + T326S + A683E: GmSHC variant with these substitutions relative to SEQ ID NO: 2 (protein)
chain: B1 chain with V45L, Q54E, V222Q, I278T, T326S, A683E
modifications: Gluconobacter morbifer
B18: Q178S: GmSHC mutation Q178S selected by site-saturation mutagenesis (protein)
chain: B1 chain with Q178S
modifications: Gluconobacter morbifer
notes: GmSHC mutation Q178S selected by site-saturation mutagenesis

test: SHC variant screening reactions: conversion of HFA to sclareolide by freeze-dried whole cells, GC analysis; assay type: biochemical, Gluconobacter morbifer; conditions: 10 mg/mL HFA, 100% enzyme loading
Procedure: SHC Variant Enzyme Expression. Wild-type and the GmSHC variants of Table 5 were individually cloned into pET28a(+). These DNA constructs were transformed into Lemo21 (DE3) E. coli and plated onto agar plates containing Kanamycin. These were incubated overnight at 37° C. A single bacterial colony was picked and used to inoculate 10 mL LB+Kanamycin in a 50 mL falcon tube. This primary culture was incubated overnight at 37° C. with agitation. These cultures (10 mL) were used to inoculate 1L LB+Kanamycin in a shake flask, which was subsequently incubated at 37° C. at 180 rpm for about 4 hours. Protein expression was then induced with the addition of 0.4 mM IPTG and 0.2 mM L-rhamnose. The incubator temperature was lowered to 25° C. and the cultures further incubated at 180 rpm overnight. The next day, the cultures were centrifuged at 4000 rpm for 10 minutes and the supernatant discarded. Cell pellets were resuspended in 0.1 M Potassium phosphate buffer pH 7.4 and exposed to 1 round of freeze/thawing before lyophilization and then use in the reaction assay.
SHC Variant Screening Reactions. Sodium citrate buffer 0.2 M, pH 5 was prepared and 500 μL of this buffer was added to freeze-dried whole cells of each variant (from 1 L shake flask fermentation of E. coli transformed with desired variant plasmid). The results were obtained with an enzyme loading of 50% (w/w). Subsequently, HFA (20 mg/mL) was added to the buffer/enzyme mix. The reactions were incubated at 25° C. with agitation for 72 hours. To stop the reaction and extract the products, a 2X volume of 3:2, heptane: isopropanol was added to each reaction. These were then incubated at 37° C. for 30 minutes with agitation to mix thoroughly. The reactions were centrifuged for 10 minutes at 4000 rpm to pellet any cellular material. The upper organic layer was then removed and placed in a clean gas chromatography (GC) vial.
GC Analysis Method. A GC analytical method was used to detect each of the starting materials and products used in the screening reactions. Due to the volume of samples generated, a fast method was developed with a run time of only 4.5 minutes.
No metal ions were included in the reaction.
Further analysis was conducted to identify one or more optimal SHC enzymes. In particular, substrate loading was increased to 20 mg/mL and incubation with a reduced enzyme loading (50%).

Molecule | conversion of HFA to sclareolide
B1 | did not show any conversion

same assay, conditions: 10 mg/mL HFA, 100% enzyme loading; based on % peak area; relative to V45L+Q54E+I278T+T326S variant; no metal ions

Molecule | Fold improvement (sclareolide production)
B2 | 4.2 Fold
B3 | 7.4 Fold
B4 | 5.4 Fold
B5 | 3.3 Fold
B6 | 3.9 Fold
B7 | 4.2 Fold
B8 | -0- Fold

same assay, conditions: 20 mg/mL HFA, 50% enzyme loading; relative to initial mutant

Molecule | Fold improvements (sclareolide production) [Fold]
B2 | 7
B3 | 28.4
B9 | 20.4
B10 | 43.8
B4 | 12
B6 | 30.3
B7 | 27
B11 | 60
B12 | 27
B13 | 25.6
B14 | 33.2
B8 | 0
B15 | 46.2
B16 | 37.3
B17 | 44.6

test: Effect of single mutations of GmSHC on activity (site saturation mutagenesis / summary of variants); assay type: biochemical, Gluconobacter morbifer; conditions: single position in GmSHC, SEQ ID NO: 2 numbering
Excerpt: Three different approaches were taken to generate SHC variants: rational mutagenesis (site-directed mutagenesis), semi-rational mutagenesis (via site-saturation library), and random mutagenesis (error prone PCR). Variants were expressed in a heterologous system and screened by GC.
To improve the conversion of HFA to sclareolide, GmSHC was mutated at one or more of the residues at position 45, 54, 178, 184, 222, 278, 284, 326, 348, 574 and 683 of SEQ ID NO: 2. Silent mutations at positions 249, 348, and 574 identified in an error prone library, were also introduced in the GmSHC of SEQ ID NO: 2.

Molecule | effect of mutation on activity
B18 | improving activity
